In patent publication US6274703 one finds fold loss in TIMP-2 binding and Ki/Kd data, which are given here for 15 substances.

Experiment [1] has as its target TIMP-2 (Homo sapiens (Human)) (UniProt P16035). Put plainly: competition with 125I-labelled WT GelA-CTD on TIMP-2 coated wells; against WT.
The target is the same in experiment [2]. The description is as above. The source holds these as a separate data set.
Experiment [3] shares this target. Description: competition with 125I-labelled WT GelA-CTD on TIMP-2 coated wells; mutant Ki over WT Kd.
Experiment [4] shares this target. Put plainly: self competition with 125I-labelled WT GelA-CTD on TIMP-2 coated wells.

Read-outs that look alike come from different tables or passages of the source.

Turning to “FLAG GelA-CTD mutant #234 Arg^590→Ala (from UniProt P08253)”, the fold loss in TIMP-2 binding in experiment [1] and in experiment [2] was greater than 100 fold throughout. In experiment [3], the Ki/Kd was greater than 500.
In turn, “FLAG GelA-CTD double mutant #46 Glu^641→Ala + Gly^651→Arg (from UniProt P08253)” returned a fold loss in TIMP-2 binding in experiment [1] greater than 100 fold. The same substance gave a Ki/Kd in experiment [3] greater than 500.
“FLAG GelA-CTD mutant #252 Tyr^636→Ala (from UniProt P08253)”: in experiment [3], the Ki/Kd came to 10.
On to “FLAG GelA-CTD mutant #229 Lys^576→Ala (from UniProt P08253)”, for which the fold loss in TIMP-2 binding in experiment [2] was greater than 100 fold. The same substance registered a Ki/Kd in experiment [3] greater than 500.
As for “FLAG GelA-CTD mutant #255 Phe^650→Ala (from UniProt P08253)”, the Ki/Kd in experiment [3] is 8.
With “FLAG GelA-CTD mutant #41 Asp^615→Ala (from UniProt P08253)”, the fold loss in TIMP-2 binding in experiment [1] was greater than 100 fold. For the same substance, the Ki/Kd in experiment [3] was 300.
“FLAG GelA-CTD mutant #28 Asp^569→Ala (from UniProt P08253)” yielded a Ki/Kd in experiment [3] of 8.
The same measure, in the same setting: next, “FLAG GelA-CTD mutant #259 Asn^611→Ala (from UniProt P08253)”: 3; “FLAG GelA-CTD mutant #257 Gly^651→Ala (from UniProt P08253)”: 3.
In experiment [2], “FLAG GelA-CTD mutant #247 Lys^646→Ala (from UniProt P08253)” came in with a fold loss in TIMP-2 binding greater than 100 fold. For the same substance, the Ki/Kd in experiment [3] was greater than 500.
“FLAG GelA-CTD fusion protein, wild type (from UniProt P08253)” came in with a Ki/Kd in experiment [4] of 1.
“FLAG GelA-CTD mutant #39 Lys^604→Ala (from UniProt P08253)”: the Ki/Kd in experiment [3] was 25.
Same read-out and setting: next, “FLAG GelA-CTD mutant #258 Asp^656→Ala (from UniProt P08253)”: 10.
On the same count and under the same terms, then “FLAG GelA-CTD mutant #250 Trp^574→Ala (from UniProt P08253)”, with greater than 500.
For the substance “FLAG GelA-CTD mutant #31 Lys^579→Ala (from UniProt P08253)”, the Ki/Kd in experiment [3] worked out at 6.
